This note sets out measurements from publication PMC8448314.

The experiment has as its target Fc-tagged SARS-CoV-2 RBD (residues 319-535, C-terminal human IgG4 Fc region) (SARS-CoV-2 | human) (UniProt P0DTC2). Description: SEC; Superose 6 Increase 10/300 GL gel filtration of each purified protein alone. (Size exclusion chromatography separates by hydrodynamic size, large species first.)

A word on the stoichiometry N: it is a count of units in the complex or per binding partner. As to “Fc-tagged SARS-CoV-2 RBD (residues 319-535, C-terminal human IgG4 Fc region) (from UniProt P0DTC2 319-535) (Fc fusion)”, the stoichiometry N is 2.
